Experiments:
[1] = test system: Cys; conditions: cited from earlier work
[2] = molecular target: Cys89 (UniProt position 89, FGRNGCSYCER); experiment: UV-vis; conditions: 25 °C; 200 mM NaCl; 10 mM Tris, 10 mM sodium citrate, 1 mM EDTA; Reduced protein referenced to oxidized protein; about 20 µM protein
[3] = molecular target: Cys92 (UniProt position 92, NGCSYCERFKK); experiment: UV-vis; conditions: 25 °C; 200 mM NaCl; 10 mM Tris, 10 mM sodium citrate, 1 mM EDTA; Reduced protein referenced to oxidized protein; about 20 µM protein
[4] = molecular target: HP0377 lacking its own signal sequence (residues 25-221 of native HP0377) with a C-terminal 6 His tag (Helicobacter pylori 26695); experiment: SEC; Superdex75 HiLoad 16/600, 20 mM Tris pH 8, 150 mM NaCl, absorbance at 280 nm, calibrated with Bio-Rad Gel Filtration Standard; monomer and dimer peaks
[5] = molecular target: HP0377 lacking its own signal sequence (residues 25-221 of native HP0377) with a C-terminal 6 His tag (Helicobacter pylori 26695); experiment: cross-linking; glutaraldehyde 0.001-0.1 % v/v, HP0377 2.5 mg/ml, room temperature, 20 min, 0.05 M bicine-NaOH pH 8.5, 0.1 mM DTT, 0.4 M NaCl, quenched with ethanolamine-HCl; SDS-PAGE; monomer to dimer

| Substance | pKa [1] | further results |
| --- | --- | --- |
| CcmG (DsbE) (Escherichia coli) | 6.8 | – |
| DsbC (Escherichia coli) | 4.1 ± 0.3 | – |
| ResA (Bacillus subtilis) | 8.8 | – |
| HP0377 (CcmG/DsbE/ResA-like thiol:disulfide oxidoreductase) (Helicobacter pylori 26695) | – | pKa [2]: 3.56 ± 0.11; pKa [3]: 9.23 ± 0.21 |
| HP0377 lacking its own signal sequence (residues 25-221 of native HP0377) with a C-terminal 6 His tag (domain or fragment) | – | stoichiometry N [4]: 2; stoichiometry N [5]: 2 |
| DsbA (Escherichia coli) | 3.5 | – |

Reference: publication PMC4491210
